The test concerns the target FtsZ-F268C labeled with fluorescein 5-maleimide (donor) or tetramethylrhodamine 5-maleimide (acceptor) (E. coli) (UniProt P0A9A6).

The substance “N-terminally truncated ZipA (26-328) from E. coli (from UniProt P77173 26-328) (domain or fragment)” had an FRET assay of subunit exchange of FtsZ protofilaments at steady state with ZipA, pH 6.5: reaction time τ (13.1 s for FtsZ alone) of 25.2 s.

The values above are taken from publication PMC5473857.
